From a protein production outcome set (Wang et al. 2014)

Experiment: label from the status in PepcDB records
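Further: failed if final PepcDB status was selected cloned or expressed and not failed if soluble or beyond.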

Sequence	protein production
MRRFVIGQAKNLIDQSRRRQLHHHKNLSFVSLIPPFSAPSDSSSRHLSSSSSSDMSASDSSSSLPVTLDTINPKVIKCEYAVRGEIVNIAQKLQEDLKTNKDAYPFDEIIYCNIGNPQSLGQQPITFFREVLALCSYTALLDESATHGLFSSDSIERAWKILDQIPGRATGAYSHSQGIKGLRDAIADGIEARDGFPADPNDIFMTDGASPGVHMMMQLLITSEKDGILCPIPQYPLYSASIALHGGTLVPYYLDEASGWGLEISELKKQLEDARSKGITVRALAVINPGNPTGQVLSEENQRDVVKFCKQEGLVLLADEVYQENVYVPDKKFHSFKKVARSMGYGEKDLALVSFQSVSKGYYGECGKRGGYMEVTGFTSDVREQIYKMASVNLCSNISGQILASLIMSPPKPGDDSYESYIAEKDGILSSLARRAKTLEEALNKLEGVTCNRAEGAMYLFPCLHLPQKAIAAAEAEKTAPDNFYCKRLLKATGIVVVPGSGFRQVPGTWHFRCTILPQEDKIPAIVDRLTAFHQSFMDEFRD	failed
MRRKLRYLNYRILIPYLILVVVGIILVYSASSDILLVNGFKPDVYGIRQAIYAAVAFFGFGIPFFALRLKVIKNPKFVAGFLIICILMLLWLVFLRFAHGSAAAVNGAVGWINLGFINLQPLEVTKLALVIYLAYVLDRRDGKLVRGKIKDNLSHPAMLAGFLMCLVIVEPDFGGTAILFMITLVMFSVSGVPVRLALTWLLGIILLVGAVFILVVLWNPKFLQDSYQFQRLMSFLHPFQLERKGGAQLVNSYYAIHNGGLFGVGLGNSMQKRGYLPEPYTDFILSITAEEIGVIFTIVLVGLLFYLMWQIMEVGINAVSQFDALICFGVTTIIFTEALFNIGAVLGLLPITGVTLPFISYGGSSMIVLTAAIGLVLNVSANEKMLKEKDETIA	failed
MRRLALLFPVLALLVGVWAFPLLGPLFRHGAVPNPFALKEPFTLLVYGSSPEYVEYHKRAPERFRGLADTILLVRLDPGANRVVVLSVPRDVWVLLPGHGWHKVNAASPLGGPELMKEAVARITGVRPDRYVVVSLEALRRGVDALGGVRVCVEKPMRYQDQAAGLVIDLEPGCQVLSGAQAEGYLRFRKDALGDIGRIQRQQAFFHALKDQLFSLPGLLRLPRAVAAVEPYVATDLTRGEKGALLGFLLRRPAFVSLLLPGRFAGGWAVDEAAWARLRAVYFEDREAWGEALAGKRAVVLFGPGQGALAQEAAERLKALGLSVSLRELALAPERTEVLENGPGRLAQALGEALGVPYRVSGEAALGADLTLRLGREGLPR	failed
MRRLLTAVLISTLGAASLVRADGPAPFSKVFEDISADQPGCAAGVMRGGKVIWSAGYGAADLTTGAAIQADTLFNLASVSKQFTGFAILQLQAQGRLSLEDPVRRFLPELPAYAQGIRIRHLLHHTSGLQDYMLLAELAGIPLSQRFTQQQALDLLVRQNSLMFPPGSEFSYSNSGYVLLSSIVERASGLSLKHYSRANIFLPLGMDHSSIVDQYPVQLPNLARGYEPGGQGKAQVAVDARWEQTGDGQVHSNVADLMRWLRNLSTGRVGGKALVENMRQTEPLNDGDPGYYGMGLANRSYRGLQELSHSGGWAGFNTDVAWYPKLDVATVVLCNSDDGRASERGRQLLDTLLGSPAPSGEADIPPPPPSIRALPKASLKTLVAGTYLDDGGHQLQLRRSGKGWSLETFPDVLPLTRQSDEVLVADNDGTPIYLAATSGGRIALNNPASTYALAPPWKPDDIRPYVGLYTLETSPGQLKVHARQGKLYVRIGLYTYPMQPLTAERFSAGELGVLSFAEQGAVLTSSVARNLRFGKVFAP	failed
MRRQAEAYKAQLAAMVESSDDAIIVKDLNAIITSWNAGAERIFGYQASEITGSSILALIPPERHEEEKGIMSLVKSGNRVDHFETMWWGKGKKPIDVSVTTSAVKDSDGNIVGISQIARDLEHHHHHH	failed
MRRQPKTRQESARMSIEAPETVVVSTWKVACDGGEGALGHPRVWLSIPHETGFVECGYCDRRYIHESFAAAKLEHHHHHH	not failed
MRRRVAAALVAAVLAAPALAQQPEPFEPEGYRTDNYRAPVPATLAGARVLTTAEAEAIWRDKSGAFIDVMPRAPKPKNLPEGTVWRDAPRRNIPGSLWLPDTGYGNLPPAMDDYLQRGLAQASRGDKAALLVIYCLADCWMSWNAARRALAYGYSNIAWYPDGSDGWERAALPTDEGQPEPRPDQ	failed
MRRSFLKTIGLGVIALFLGLLNPLSAASYPPIKNTKVGLALSSHPLASEIGQKVLEEGGNAIDAAVAIGFALAVVHPAAGNIGGGGFAVIHLANGENVALDFREKAPLKATKNMFLDKQGNVVPKLSEDGYLAAGVPGTVAGMEAMLKKYGTKKLSQLIDPAIKLAENGYAISQRQAETLKEARERFLKYSSSKKYFFKKGHLDYQEGDLFVQKDLAKTLNQIKTLGAKGFYQGQVAELIEKDMKKNGGIITKEDLASYNVKWRKPVVGSYRGYKIISMSPPSSGGTHLIQILNVMENADLSALGYGASKNIHIAAEAMRQAYADRSVYMGDADFVSVPVDKLINKAYAKKIFDTIQPDTVTPSSQIKPGMGQLHEGSNTTHYSVADRWGNAVSVTYTINASYGSAASIDGAGFLLNNEMDDFSIKPGNPNLYGLVGGDANAIEANKRPLSSMSPTIVLKNNKVFLVVGSPGGSRIITTVLQVISNVIDYNMNISEAVSAPRFHMQWLPDELRIEKFGMPADVKDNLTKMGYQIVTKPVMGDVNAIQVLPKTKGSVFYGSTDPRKEF	failed
MRRSFYHYLMTLKGPAKDSETDFANEAAKDIQFPKQTEDYHELSSYLEMNADYLSNMDIFDELWEKYLENNKLEHHHHHH	not failed
MRRSKADVERYIASVQGSAPSPREKSMKGFYFAKLYYEAKEYDLAKKYISTYINVQERDPKAHRFLGLLYEVEENIDKAVECYKRSVELNPTQKDLVLKIAELLCKNDVTDGRAKYWVERAAKLFPGSPAIYKLKEQLLDCKGEDGWNKLFDLIQSELYARPDDIHVNIRLVELYRSNKRLKDAVAHCHEADRNTALRSSLEWNLCVVQTLKEYLESLQCLDSDKSTWRATNKDLLLAYANLMLLTLSTRDVQEGRELLESFDSALQSVKSSVGGNDELSATFLETKGHFYMHVGSLLLKMGQQSDIQWRALSELAALCYLVAFQVPRPKVKLIKGEAGQNLLETMAHDRLSQSGHMLLNLSRGKQDFLKEVVESFANKSGQSALCDALFSSQSSKERSFLGNDDIGNLDGQVPDPDDLARYDTGAVRAHNGSLQHLTWLGLQWNSLSTLPAIRKWLKQLFHHLPQETSRLETNAPESICILDLEVFLLGVIYTSHLQLKEKCNSHHTSYQPLCLPLPVCRQLCTERQKTWWDAVCTLIHRKALPGTSAKLRLLVQREINSLRGQEKHGLQPALLVHWAQSLQKTGSSLNSFYDQREYIGRSVHYWRKVLPLLKMIRKKNSIPEPIDPLFKHFHSVDIQASEIGEYEEDAHITFAILDAVNGNIEDAMTAFESIKNVVSYWNLALIFHRKAEDIENDALSPEEQEECKNYLRKTRDYLIRILDDSDSNTSVVQKLWYISKQQKFGIWGWEDCTSVRV	failed
MRRTLVVPDVLLLGTLLAGLLLLSGCEGDYRPRAVGPIGEITVVMDSSHWTGPSGEALRANVTPWVETLPVSERSFQLRHLELTDERTYERVQDLKNVIIAAPLSDSTNETSFLRRRLSDEAEQAILDGQTAVVPKPNLWRRSQRIYYVAAASPDALAETFQSQGTQIRDTFTEATLQRMDRNMYEDDRRSALEDTLMQRHGFAVNMQSDFQIAVDTTTGSEGFVWLRRLLAQTRREFFVYYVEDVSPDQITPEWIYNTRDSLTRRHLRGNVRGFAKIDYRRPLKTEQRSFLDRYAYDSRGLWYMVAPLGGGNELRPVGGGGPFVNYTFYDQATDRVYMLDGSIFAPDNDKIDLLRQMEVMARTFRTAEGSRSPDASPTAAKLEHHHHHH	failed
MRSAAVLALLLCAGQVTALPVNSPMNKGDTEVMKCIVEVISDTLSKPSPMPVSQECFETLRGDERILSILRHQNLLKELQDLALQGAKERAHQQKKHSGFEDELSEVLENQSSQAELKEAVEEPSSKDVMEKREDSKEAEKSGEATDGARPQALPEPMQESKAEGNNQAPGEEEEEEEEATNTHPPASLPSQKYPGPQAEGDSEGLSQGLVDREKGLSAEPGWQAKREEEEEEEEEAEAGEEAVPEEEGPTVVLNPHPSLGYKEIRKGESRSEALAVDGAGKPGAEEAQDPEGKGEQEHSQQKEEEEEMAVVPQGLFRGGKSGELEQEEERLSKEWEDSKRWSKMDQLAKELTAEKRLEGQEEEEDNRDSSMKLSFRARAYGFRGPGPQLRRGWRPSSREDSLEAGLPLQVRGYPEEKKEEEGSANRRPEDQELESLSAIEAELEKVAHQLQALRRG	failed
MRSAGEPRWVVPILASPLLWHAARFALVSAYLLGGVVKLFDFAAAVAEQERFGLHPGWLWATLAIVVELGGSLLVLADRLVWLGAGALGVLTFVAMLTANAFWSAPAADRWIQANAFFEHFGLIAGFVLLAMLSDQRRSTS	failed
MRSSDILIVDDEVGIRDLLSEILQDEGYSVALAENAEEARKLRHQARPAMVLLDIWMPDCDGITLLKEWAKNGQLNMPVVVMSGHASIDTAVEATKIGAIDFLEKPISLQKLLSAVENALKHGAAQIETGPVFDKLGNSAAIQEMNREVEAAAKRTSPVFLTGEAGSPFETVARYFHKNGTPWVSPARVEYLIDMPMELLQKAEGGVLYVGDIAQYSRNIQTGITFIIGKAERCRVRVIASCSYAAGSDGISCEEKLAGLFSESVVRIPPLSMQHEDIPFLIQGIACNVAESQKITPTAFSDDALAVLSRYDWPGNFEQLQNVVTTLLLEADGQEIGIGAASSALGRGVPADGTGHMACGFDFNLPLRELREEVERRYFEYHIAQEGQNMSKVAQKVGLERTHLYRKLKQLGIGVSRRAGEKTEE	not failed
MRSSQAIDFERIPEMEDKWRKEITAMTVTLQDKRKAIQNDEILRGVHPKSHGCLDAEFTVNRDIAPQFQVGLFAQPGKCFRARIRYSNADVLKRADLEKGQDATGARFLNHGSRGMAIKVLDVGAPVLLEDGCARNQDFLMVNTPEFAFRNVRDYLRLTKALCASADGADPLLFFLPGELLKRGMMDMSGSLLPAPAGEPPQNAGLRALFEANRAFFDDFDAEDMQGVISAAGVVGKIQSTPVRNPLFAPYFSAASFRFGKDRVMRFSVVPLQSEEMAADMASDAFEDFSDDYLSQALALSVATNEPIKLSFRIQIAHEEDIVNDIDGMIENAAKTWDEDQFSHTEVAQITINPPCPSAELVDTCKPLLFTPWHAVVDFEPLGGINRLRKPVYSTSAAFRRSVLEHHHHHH	failed
MRSSQGSGADPGARGRVDQRLRRGARPAPTSPHSPAKTNHPLRAAIIGGGPGGLYTAALLKRLAPDREVTVYERNAPDDTFGFGVVLSDETLGGIEHADPTVYEALKAHFVRWDDIDIVHRHTRHTSGGHRFAALGRRRLLEILHDRCRDLGVELRFRTEAPPPDRLARTHDLVVAADGVHSATREAYRDVFRPRLTPHRCRYIWLAADFAFDAFRFEIAETEHGVMQLHGYPFAPDASTVIVEMREEVWRAAGFDELDETESTARCAKIFADALGGRPLRSNKSAWTTFRTVVNERWSHGNIVLLGDAAHTAHFSIGSGTKLAVEDALALAACLAERPTLQEALTAYEEERRPVVASTQRAAKASLEWFEDLDRYLAQPPRQFAFNLLTRSRRVTHENLRLRDAGFTESVEREFGCPPDTPPMFTPFRLRGLTLRNRVVVSPMDMYSATDGVPGDFHLVHLGARALGGAALVMTEMVCVSAEGRITPGCAGLYTGRQGEAWRRITDFVHDGAPGTAIGVQLGHSGRKGSTRLMWEGMDEPLPDGNWPLVAPSPLPYRPGGQVPRELSRAQLADVREQFRAAAERAAGAGFDLLELHCAHGYLLSGFLSPLTNHRTDAYGGSPENRLRFPLEVFDAVREVWPDERPMTVRISATDWAEGGTSAEEAVEIARAFAAHGADAIDVSTGQVVSGERPEFGRSYQTPYADRIRHEAGVPVIAVGAISSWDDVNSLVLAGRTDLCALARPHLYDPHWTLHAAAEQGYDGPGARWPAPYRAGSRPPRTGRTDAPRPRLTLHGPGQDG	failed
